Test results as given in patent US20260373262 (published 2026).

Target: T1, EPHB6 (human, UniProt O15197)
T1 chain: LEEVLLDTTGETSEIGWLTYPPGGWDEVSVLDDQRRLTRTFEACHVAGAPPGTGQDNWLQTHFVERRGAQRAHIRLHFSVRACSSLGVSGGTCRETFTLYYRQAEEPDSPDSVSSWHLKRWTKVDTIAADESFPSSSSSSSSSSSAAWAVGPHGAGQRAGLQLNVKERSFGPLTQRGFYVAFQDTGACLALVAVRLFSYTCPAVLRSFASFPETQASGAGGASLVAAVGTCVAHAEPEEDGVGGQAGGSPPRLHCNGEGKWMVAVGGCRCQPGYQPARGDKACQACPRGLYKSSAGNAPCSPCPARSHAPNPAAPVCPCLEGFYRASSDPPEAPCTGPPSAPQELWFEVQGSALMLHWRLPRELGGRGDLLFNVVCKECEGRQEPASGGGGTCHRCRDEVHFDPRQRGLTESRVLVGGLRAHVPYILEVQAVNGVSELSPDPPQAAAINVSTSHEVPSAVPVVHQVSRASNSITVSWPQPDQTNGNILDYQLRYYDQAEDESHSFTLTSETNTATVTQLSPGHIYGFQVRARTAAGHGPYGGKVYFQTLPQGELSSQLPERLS
Assay: FACS

EC50: > 300 µg/mL
B1: hLFTT-1 VH4/VL5 (antibody, V domains shown)
VH: QIQLVQSGSELKKPGASVKVSCKASGYTFTTYGMSWVRQAPGQGLKWMGWIYTYSGVPTYADDLTGRFVFSLDTSVSTAYLQISSLKAEDTATYYCARVRDGYYRYAMDYWGRGTLVTVSS
VL: DIQMTQSPSSLSVSVGDRVTITCKASQDINRYIAWYQQQPGKAPKLLIHFTSTLQSGVPSRFSGSGSGTDFTFTISSLQPEDIATYYCLQYDDLRTFGQGTKLEIK
